The record followed here is patent publication US12427210B2 (3B PHARMACEUTICALS GMBH, dated 2025).

Sequences and labels used below:
B1: Hex-[Cys(tMeBn(InDOTA-PP))-Pro-Pro-Thr-Gln-Phe-Cys]-Asp-NH2 (3BP-3590) (peptide)
peptide: CPPTQFCD
modifications: N-terminal hexanoyl (Hex); Cys1 and Cys7 cyclised through tMeBn carrying InDOTA-PP (indium complex); C-terminal amide
B2: Hex-[Cys(tMeBn(LuDOTA-PP))-Pro-Pro-Thr-Gln-Phe-Cys]-Asp-NH2 (3BP-3591) (peptide)
peptide: CPPTQFCD
modifications: N-terminal hexanoyl (Hex); Cys1 and Cys7 cyclised through tMeBn carrying LuDOTA-PP (lutetium complex); C-terminal amide
B3: Hex-[Cys(tMeBn(LuDOTA-AET))-Pro-Pro-Thr-Gln-Phe-Cys]-OH (3BP-3624) (peptide)
peptide: CPPTQFC
modifications: N-terminal hexanoyl (Hex); Cys1 and Cys7 cyclised through tMeBn carrying LuDOTA-AET (lutetium complex); free C-terminal acid (-OH)
B4: Hex-[Cys(tMeBn(GaDOTA-AET))-Pro-Pro-Thr-Gln-Phe-Cys]-OH (3BP-3949) (peptide)
peptide: CPPTQFC
modifications: N-terminal hexanoyl (Hex); Cys1 and Cys7 cyclised through tMeBn carrying GaDOTA-AET (gallium complex); free C-terminal acid (-OH)
B5: Hex-[Cys(tMeBn(InDOTA-AET))-Pro-Pro-Thr-Gln-Phe-Cys]-OH (3BP-3623) (peptide)
peptide: CPPTQFC
modifications: N-terminal hexanoyl (Hex); Cys1 and Cys7 cyclised through tMeBn carrying InDOTA-AET (indium complex); free C-terminal acid (-OH)
B6: Hex-[Cys(tMeBn(DOTA-PP))-Pro-Pro-Thr-Gln-Phe-Cys]-Asp-NH2 (3BP-3407) (peptide)
peptide: CPPTQFCD
modifications: N-terminal hexanoyl (Hex); Cys1 and Cys7 cyclised through tMeBn carrying DOTA-PP; C-terminal amide
B7: Hex-[Cys(tMeBn(GaDOTA-PP))-Pro-Pro-Thr-Gln-Phe-Cys]-Asp-NH2 (3BP-3592) (peptide)
peptide: CPPTQFCD
modifications: N-terminal hexanoyl (Hex); Cys1 and Cys7 cyclised through tMeBn carrying GaDOTA-PP (gallium complex); C-terminal amide
B8: Hex-[Cys(tMeBn(DOTA-AET))-Pro-Pro-Thr-Gln-Phe-Cys]-OH (3BP-3554) (peptide)
peptide: CPPTQFC
modifications: N-terminal hexanoyl (Hex); Cys1 and Cys7 cyclised through tMeBn carrying DOTA-AET; free C-terminal acid (-OH)
B9: Hex-[Cys(tMeBn(EuDOTA-PP))-Pro-Pro-Thr-Gln-Phe-Cys]-Asp-NH2 (3BP-3661) (peptide)
peptide: CPPTQFCD
modifications: N-terminal hexanoyl (Hex); Cys1 and Cys7 cyclised through tMeBn carrying EuDOTA-PP (europium complex); C-terminal amide

The target in the first assay is Recombinant human FAP (R&D systems, #3715-SE) (human). Kind of assay: SPR (Biacore T200), rhFAP captured by anti-FAP antibody, single cycle kinetics; category A = pKD values >8.0.
Chain of Recombinant human FAP (R&D systems, #3715-SE) (human) (chain, as listed by the source limits assumed): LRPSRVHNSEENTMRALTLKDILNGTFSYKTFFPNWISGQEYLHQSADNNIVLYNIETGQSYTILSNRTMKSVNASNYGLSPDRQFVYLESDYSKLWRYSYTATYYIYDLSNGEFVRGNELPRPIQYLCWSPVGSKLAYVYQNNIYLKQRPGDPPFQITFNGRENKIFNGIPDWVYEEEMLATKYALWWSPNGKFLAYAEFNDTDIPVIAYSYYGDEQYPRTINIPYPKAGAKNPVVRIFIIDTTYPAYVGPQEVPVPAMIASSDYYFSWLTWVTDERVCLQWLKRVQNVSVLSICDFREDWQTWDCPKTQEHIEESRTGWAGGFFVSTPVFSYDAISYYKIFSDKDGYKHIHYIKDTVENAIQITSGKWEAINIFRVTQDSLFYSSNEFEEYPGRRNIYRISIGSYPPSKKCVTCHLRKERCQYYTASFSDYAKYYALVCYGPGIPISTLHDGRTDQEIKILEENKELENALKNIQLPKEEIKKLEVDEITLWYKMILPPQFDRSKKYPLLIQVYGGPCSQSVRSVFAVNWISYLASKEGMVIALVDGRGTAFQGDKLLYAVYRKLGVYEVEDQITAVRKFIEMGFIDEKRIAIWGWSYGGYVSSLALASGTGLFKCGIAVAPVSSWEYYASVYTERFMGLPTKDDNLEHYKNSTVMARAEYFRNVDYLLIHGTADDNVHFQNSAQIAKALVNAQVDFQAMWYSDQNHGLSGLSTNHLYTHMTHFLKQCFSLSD
Regarding B1, the “pKD Category” value is greater than 8 pKD.

Consider B2, for which the “pKD Category” value is greater than 8 pKD.

For the molecule B3, the “pKD Category” value is greater than 8 pKD.

With B4, the “pKD Category” value was greater than 8 pKD.

Take B5: the “pKD Category” value is greater than 8 pKD.

Regarding B6, the “pKD Category” value was greater than 8 pKD.

On to B7, for which the “pKD Category” value was greater than 8 pKD.

For the molecule B8, the “pKD Category” value is greater than 8 pKD.

The target of a further assay is human fibroblast activation protein (FAP) on human WI-38 fibroblasts (human). Kind of assay: competitive FACS binding on FAP-expressing WI-38 cells against 3 nM Cy5-labeled compound; category A = pIC50 values >8.0. In general terms: Flow cytometry measures light scatter and fluorescence of single cells or particles in a stream.
In the case of B1, the “pIC50 Category (FACS)” value is greater than 8 pIC50.

In the case of B2, the “pIC50 Category (FACS)” value is greater than 8 pIC50.

Regarding B9, the “pIC50 Category (FACS)” value was greater than 8 pIC50.

Take B6: the “pIC50 Category (FACS)” value was greater than 8 pIC50.

With B7, the “pIC50 Category (FACS)” value is greater than 8 pIC50.
